The text below walks through data of article PMC6702220 (Communications Biology, 2019).

This data set concerns the molecule itself. The data set can be described thus: crystal structure; hanging drop, 22 °C; 5 mg/ml PlsX, 1 mM 1-oxohexadecylphosphoramidic acid, 0.08 M Tris-HCl pH 8.0, 0.16 M Li2SO4, 21% PEG 4000, 0.012 mM CYMAL 7, 5% t-butanol; 2.30 Å; two subunits in the asymmetric unit.

B1: Bacillus subtilis phosphate acyltransferase PlsX (enzyme, UniProt P71018 1-333, looked up)
chain: MRIAVDAMGGDHAPKAVIDGVIKGIEAFDDLHITLVGDKTTIESHLTTTSDRITVLHADEVIEPTDEPVRAVRRKKNSSMVLMAQEVAENRADACISAGNTGALMTAGLFIVGRIKGIDRPALAPTLPTVSGDGFLLLDVGANVDAKPEHLVQYAIMGSVYSQQVRGVTSPRVGLLNVGTEDKKGNELTKQTFQILKETANINFIGNVEARDLLDDVADVVVTDGFTGNVTLKTLEGSALSIFKMMRDVMTSTLTSKLAAAVLKPKLKEMKMKMEYSNYGGASLFGLKAPVIKAHGSSDSNAVFHAIRQAREMVSQNVAALIQEEVKEEKTDE
notes: Phosphate acyltransferase PlsX, Bacillus subtilis; plsX gene amplified from genomic DNA and inserted into pET28a between NcoI and XhoI; Crystallised with the product analog 1-oxohexadecylphosphoramidic acid (palmitoyl phosphoramide), which was not found in the solved structure; also called B. subtilis PlsX; recombinant PlsX; source: E. coli C43 (DE3), purified (HisTrap HP, gel filtration on …)
For B1, the “stoichiometry N” value worked out at 2.

The term stoichiometry N denotes a count of units in the complex or per binding partner.
